From publication PMC11210195

Tests used:
mAb1 WT-AAA (human) [1] = assay: mass photometry; 200 nM mAb1 Fc variant pre-incubated with 4000 nM PRYSPRY domain, analysed at a 1:250 dilution; PBS pH 7.4, room temperature
mAb1 HH (human) = assay: SPR; antibody Fc variants captured via CaptureSelect Human Fab-kappa ligand on a C1 chip (approx. 60 RU); PRYSPRY injected, five concentrations, two-fold series; 25°C, HBS-EP+ pH 7.4; 1:1 Langmuir fit
mAb1 WT-AAA (human) [2] = assay: as above
mAb1 YTE (human) = assay: as above
Briakinumab (human) = assay: SPR; Biacore T200, C1 chip, 25 °C, HBS-EP+ (10 mM HEPES, 150 mM NaCl, 3 mM EDTA, 0.05% P20, pH 7.4); antibody Fc variants captured via anti-human Fab-kappa nanobody (about 60 RU), Fc only variants amine-coupled (60-80 RU), cytokine-Fc fusions captured via anti-PGLALA F(ab')2 (35-40 RU); PRYSPRY domain injected in five two-fold dilutions from 500, 1000 or 2000 nM; global fit, Langmuir 1:1, affinity mode
[3] = target: Fc WT (Fc-only variant, human IgG1 core hinge-CH2-CH3, wild type) (human); assay: as above
Ustekinumab (human) = assay: as above
[4] = target: anti-AAV2 capsid antibody A20 WT (bivalent, human IgG1 Fc WT) (human); assay: as above
[5] = target: mAb1 HH-AAA (asymmetrical human IgG1, one Fc heavy chain HH, the other AAA) (human); assay: as above
[6] = target: mAb1 WT-AAA (asymmetrical human IgG1, one Fc heavy chain H310A, H433A, Y436A) (human); assay: as above
[7] = target: mAb2 WT KiH (human IgG1, knob-into-hole, Fc wild type at the TRIM21 site) (human); assay: as above
[8] = target: mAb2 WT-AAA (asymmetrical human IgG1, one Fc heavy chain H310A, H433A, Y436A) (human); assay: as above

Chain of Ustekinumab (human) (heavy, as listed by the source, chain 1 of 2): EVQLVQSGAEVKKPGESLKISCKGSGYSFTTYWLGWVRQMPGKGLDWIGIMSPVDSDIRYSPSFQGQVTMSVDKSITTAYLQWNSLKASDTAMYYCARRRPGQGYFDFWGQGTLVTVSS
Chain of Ustekinumab (human) (light, as listed by the source, chain 2 of 2): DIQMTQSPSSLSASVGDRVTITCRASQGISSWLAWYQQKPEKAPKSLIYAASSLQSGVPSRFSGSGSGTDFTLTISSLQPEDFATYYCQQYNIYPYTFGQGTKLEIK
Chain of TRIM21 PRYSPRY domain (P19474 277-475): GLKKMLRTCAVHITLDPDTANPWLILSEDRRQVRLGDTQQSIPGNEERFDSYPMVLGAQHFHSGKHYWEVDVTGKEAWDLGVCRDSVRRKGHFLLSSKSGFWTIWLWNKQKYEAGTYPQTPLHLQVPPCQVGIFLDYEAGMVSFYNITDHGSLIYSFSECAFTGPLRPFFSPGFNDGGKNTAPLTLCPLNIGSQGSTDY
Chain of anti-AAV2 capsid antibody A20 WT (bivalent, human IgG1 Fc WT) (human) (heavy, as listed by the source, chain 1 of 2): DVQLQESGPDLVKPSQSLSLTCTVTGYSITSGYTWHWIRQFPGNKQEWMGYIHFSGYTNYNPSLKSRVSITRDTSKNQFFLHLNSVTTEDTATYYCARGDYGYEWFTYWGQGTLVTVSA
Chain of anti-AAV2 capsid antibody A20 WT (bivalent, human IgG1 Fc WT) (human) (light, as listed by the source, chain 2 of 2): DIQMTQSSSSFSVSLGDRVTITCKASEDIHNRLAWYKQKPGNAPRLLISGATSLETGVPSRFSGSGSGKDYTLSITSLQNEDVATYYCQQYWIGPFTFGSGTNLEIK
Chain of Briakinumab (human) (heavy, as listed by the source, chain 1 of 2): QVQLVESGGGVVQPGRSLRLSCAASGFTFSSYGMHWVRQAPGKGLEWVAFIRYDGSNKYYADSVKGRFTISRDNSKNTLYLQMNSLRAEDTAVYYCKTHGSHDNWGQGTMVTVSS
Chain of Briakinumab (human) (light, as listed by the source, chain 2 of 2): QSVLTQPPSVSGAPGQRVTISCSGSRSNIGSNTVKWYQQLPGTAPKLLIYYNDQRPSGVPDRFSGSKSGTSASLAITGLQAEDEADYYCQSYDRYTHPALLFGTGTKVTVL

Substance “TRIM21 PRYSPRY domain (from UniProt P19474-1 277-475) (domain or fragment)” has a stoichiometry N (mAb1 WT-AAA (human) [1]) of 1, a fold decrease of affinity against mAb1 Fc WT (mAb1 HH (human)) of 2.4 fold and a fold faster off rate against WT (mAb1 HH (human)) of 5 fold. For the same substance, the fold faster on rate against WT (mAb1 HH (human)) was 2 fold, the Kd (mAb1 WT-AAA (human) [2]) was 40 nM and the stoichiometry N (mAb1 WT-AAA (human) [2]) was 1. It also gave a fold decrease of affinity against mAb1 Fc WT (mAb1 YTE (human)) of 1.7 fold, a fold faster off rate against WT (mAb1 YTE (human)) of 1.6 fold and a Kd (Briakinumab (human)) of 52.3 nM. The koff (Briakinumab (human)) was 0.115 s⁻¹, the kon (Briakinumab (human)) was 2.2e+06 M⁻¹ s⁻¹ and the Kd [3] was 65.1 nM. For the same substance, the koff [3] was 0.102 s⁻¹, the kon [3] was 1.57e+06 M⁻¹ s⁻¹ and the Kd (Ustekinumab (human)) was 42.3 nM. For the same substance, the koff (Ustekinumab (human)) was 0.104 s⁻¹, the kon (Ustekinumab (human)) was 2.46e+06 M⁻¹ s⁻¹ and the Kd [4] was 45.6 nM. The koff [4] was 0.0876 s⁻¹, the kon [4] was 1.92e+06 M⁻¹ s⁻¹ and the Kd [5] was 120 nM. For the same substance, the koff [5] was 0.434 s⁻¹, the kon [5] was 3.63e+06 M⁻¹ s⁻¹ and the kon [6] was 2.66e+06 M⁻¹ s⁻¹. It also gave a Kd [7] of 49.6 nM, a koff [7] of 0.118 s⁻¹ and a kon [7] of 2.38e+06 M⁻¹ s⁻¹. It also gave a Kd [8] of 38.5 nM, a koff [8] of 0.0901 s⁻¹ and a kon [8] of 2.34e+06 M⁻¹ s⁻¹.
